Laboratory results taken from article PMC8003784, “Two Key Amino Acids Variant of α-L-arabinofuranosidase from Bacillus subtilis Str. 168 with Altered Activity for Selective Conversion Ginsenoside Rc to Rd” (Molecules, 2021).
Numbering of substitutions follows the chain as printed. Names and notes keep the numbering of the source.

B1: BsAbfA (Bacillus subtilis subsp. subtilis str. 168) (protein)
chain: MKKARMIVDKEYKIGEVDKRIYGSFIEHMGRAVYEGIYEPDHPEADEDGFRKDVQSLIKELQVPIIRYPGGNFLSGYNWEDGVGPVENRPRRLDLAWQTTETNEVGTNEFLSWAKKVNTEVNMAVNLGTRGIDAARNLVEYCNHPKGSYWSDLRRSHGYEQPYGIKTWCLGNEMDGPWQIGHKTADEYGRLAAETAKVMKWVDPSIELVACGSSNSGMPTFIDWEAKVLEHTYEHVDYISLHTYYGNRDNNLPNYLARSMDLDHFIKSVAATCDYVKAKTRSKKTINLSLDEWNVWYHSNEADKKVEPWITARPILEDIYNFEDALLVGSLLITMLQHADRVKIACLAQLVNVIAPIMTEKGGEAWRQPIFYPYMHASVYGRGESLKPLISSPKYDCSDFTDVPYVDAAVVYSEEEETLTIFAVNKAEDQMETEISLRGFESYQIAEHIVLEHQDIKATNQHNRKNVVPHSNGSSSVSENGLTAHFTPLSWNVIRLKKQS
notes: full ORF, codon-optimised, N-terminal His-tag (pET-28a), E. coli BL21(DE3), Ni-NTA purified, approx. 60 kDa; GH51
B2: BsAbfA (Bacillus subtilis subsp. subtilis str. 168; E292D) (protein)
chain: B1 chain with E292D
notes: as for B1
B3: BsAbfA (Bacillus subtilis subsp. subtilis str. 168; E292Q) (protein)
chain: B1 chain with E292Q
notes: as for B1
B4: BsAbfA (Bacillus subtilis subsp. subtilis str. 168; E173D) (protein)
chain: B1 chain with E173D
notes: as for B1
B5: BsAbfA (Bacillus subtilis subsp. subtilis str. 168; E173Q) (protein)
chain: B1 chain with E173Q
notes: as for B1

Substrate: O=[N+]([O-])c1ccc(O[C@@H]2O[C@@H](CO)[C@H](O)[C@H]2O)cc1
Assay: purified protein
Format: biochemical, Bacillus subtilis
Settings: pH 5, 40 °C, 50 mM citric acid/sodium citrate

| Protein | Km | kcat | kcat/Km |
| --- | --- | --- | --- |
| B1 | 600 ± 80 µM | 109 ± 8.6 s⁻¹ | 182000 ± 6900 M⁻¹ s⁻¹ |
| B2 | 700 ± 60 µM | 0.9 ± 0.05 s⁻¹ | 1300 ± 30 M⁻¹ s⁻¹ |
| B3 | 700 ± 90 µM | 1.6 ± 0.04 s⁻¹ | 2300 ± 50 M⁻¹ s⁻¹ |
| B4 | 200 ± 50 µM | 0.5 s⁻¹ | 2500 ± 60 M⁻¹ s⁻¹ |
| B5 | 400 ± 70 µM | 2.5 ± 2.1 s⁻¹ | 6300 ± 90 M⁻¹ s⁻¹ |
